From patent US20150344570A1 (published 2015)

Biological target: T1, FcγRIa (human, UniProt P12314 16-292)
T1 construct: extracellular domain; soluble His-tagged extracellular domain expressed in FreeStyle293 cells, used as analyte in Biacore; also called FcgRI; CD64
Assay: SPR (Biacore), captured antibody, FcγRIa analyte; relative to GpH7-A5/GpH7-B3/GpL16-k0

T1 sequence (P12314 16-292): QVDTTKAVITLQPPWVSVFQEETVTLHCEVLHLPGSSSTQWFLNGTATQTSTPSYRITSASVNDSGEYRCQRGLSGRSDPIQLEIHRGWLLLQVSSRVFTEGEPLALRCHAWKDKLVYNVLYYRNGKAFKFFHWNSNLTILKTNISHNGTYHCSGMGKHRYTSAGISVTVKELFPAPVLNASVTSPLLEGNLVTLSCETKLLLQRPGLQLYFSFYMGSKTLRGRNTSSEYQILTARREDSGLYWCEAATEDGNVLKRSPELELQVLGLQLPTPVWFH

Binder | He/Con_1a
GpH7-A5/GpH7-B3 variant Y296_16H/GpL16-k0 (antibody, human IgG1, kappa, heterodimerized IgG1, mutation in one H chain only; also called He Ab) heavy 1: not shown heavy 2: not shown light: DIVMTQSPLSLPVTPGEPASISCQASESLVHSNRNTYLHWYLQKPGQSPQLLIYKVSNRFSGVPDRFSGSGSGTDFTLKISRVEAEDVGVYYCSQNTHVPPTFGQGTKVEIERTVAAPSVFIFPPSDEQLKSGTASVVCLLNNFYPREAKVQWKVDNALQSGNSQESVTEQDSKDSTYSLSSTLTLSKADYEKHKVYACEVTHQGLSSPVTKSFNRGEC | 106 relative, control = 100
GpH7-A5/GpH7-B3 variant Y296_20W/GpL16-k0 (antibody, human IgG1, kappa, heterodimerized IgG1, mutation in one H chain only; also called He Ab) heavy 1: not shown heavy 2: not shown light: DIVMTQSPLSLPVTPGEPASISCQASESLVHSNRNTYLHWYLQKPGQSPQLLIYKVSNRFSGVPDRFSGSGSGTDFTLKISRVEAEDVGVYYCSQNTHVPPTFGQGTKVEIERTVAAPSVFIFPPSDEQLKSGTASVVCLLNNFYPREAKVQWKVDNALQSGNSQESVTEQDSKDSTYSLSSTLTLSKADYEKHKVYACEVTHQGLSSPVTKSFNRGEC | 111 relative, control = 100
GpH7-A5/GpH7-B3 variant Y300_03V/GpL16-k0 (antibody, human IgG1, kappa, heterodimerized IgG1, mutation in one H chain only; also called He Ab) heavy 1: not shown heavy 2: not shown light: DIVMTQSPLSLPVTPGEPASISCQASESLVHSNRNTYLHWYLQKPGQSPQLLIYKVSNRFSGVPDRFSGSGSGTDFTLKISRVEAEDVGVYYCSQNTHVPPTFGQGTKVEIERTVAAPSVFIFPPSDEQLKSGTASVVCLLNNFYPREAKVQWKVDNALQSGNSQESVTEQDSKDSTYSLSSTLTLSKADYEKHKVYACEVTHQGLSSPVTKSFNRGEC | 117 relative, control = 100
GpH7-A5/GpH7-B3 variant Y300_08L/GpL16-k0 (antibody, human IgG1, kappa, heterodimerized IgG1, mutation in one H chain only; also called He Ab) heavy 1: not shown heavy 2: not shown light: DIVMTQSPLSLPVTPGEPASISCQASESLVHSNRNTYLHWYLQKPGQSPQLLIYKVSNRFSGVPDRFSGSGSGTDFTLKISRVEAEDVGVYYCSQNTHVPPTFGQGTKVEIERTVAAPSVFIFPPSDEQLKSGTASVVCLLNNFYPREAKVQWKVDNALQSGNSQESVTEQDSKDSTYSLSSTLTLSKADYEKHKVYACEVTHQGLSSPVTKSFNRGEC | 113 relative, control = 100
GpH7-A5/GpH7-B3 variant Y300_11K/GpL16-k0 (antibody, human IgG1, kappa, heterodimerized IgG1, mutation in one H chain only; also called He Ab) heavy 1: not shown heavy 2: not shown light: DIVMTQSPLSLPVTPGEPASISCQASESLVHSNRNTYLHWYLQKPGQSPQLLIYKVSNRFSGVPDRFSGSGSGTDFTLKISRVEAEDVGVYYCSQNTHVPPTFGQGTKVEIERTVAAPSVFIFPPSDEQLKSGTASVVCLLNNFYPREAKVQWKVDNALQSGNSQESVTEQDSKDSTYSLSSTLTLSKADYEKHKVYACEVTHQGLSSPVTKSFNRGEC | 107 relative, control = 100
GpH7-A5/GpH7-B3 variant Y300_14T/GpL16-k0 (antibody, human IgG1, kappa, heterodimerized IgG1, mutation in one H chain only; also called He Ab) heavy 1: not shown heavy 2: not shown light: DIVMTQSPLSLPVTPGEPASISCQASESLVHSNRNTYLHWYLQKPGQSPQLLIYKVSNRFSGVPDRFSGSGSGTDFTLKISRVEAEDVGVYYCSQNTHVPPTFGQGTKVEIERTVAAPSVFIFPPSDEQLKSGTASVVCLLNNFYPREAKVQWKVDNALQSGNSQESVTEQDSKDSTYSLSSTLTLSKADYEKHKVYACEVTHQGLSSPVTKSFNRGEC | 112 relative, control = 100

The next lines start with the values.

He/Con_1a | Binder
112 relative, control = 100 | GpH7-A5/GpH7-B3 variant Y300_02A/GpL16-k0 (antibody, human IgG1, kappa, heterodimerized IgG1, mutation in one H chain only; also called He Ab) heavy 1: not shown heavy 2: not shown light: DIVMTQSPLSLPVTPGEPASISCQASESLVHSNRNTYLHWYLQKPGQSPQLLIYKVSNRFSGVPDRFSGSGSGTDFTLKISRVEAEDVGVYYCSQNTHVPPTFGQGTKVEIERTVAAPSVFIFPPSDEQLKSGTASVVCLLNNFYPREAKVQWKVDNALQSGNSQESVTEQDSKDSTYSLSSTLTLSKADYEKHKVYACEVTHQGLSSPVTKSFNRGEC
112 relative, control = 100 | GpH7-A5/GpH7-B3 variant Y300_06M/GpL16-k0 (antibody, human IgG1, kappa, heterodimerized IgG1, mutation in one H chain only; also called He Ab) heavy 1: not shown heavy 2: not shown light: DIVMTQSPLSLPVTPGEPASISCQASESLVHSNRNTYLHWYLQKPGQSPQLLIYKVSNRFSGVPDRFSGSGSGTDFTLKISRVEAEDVGVYYCSQNTHVPPTFGQGTKVEIERTVAAPSVFIFPPSDEQLKSGTASVVCLLNNFYPREAKVQWKVDNALQSGNSQESVTEQDSKDSTYSLSSTLTLSKADYEKHKVYACEVTHQGLSSPVTKSFNRGEC
111 relative, control = 100 | GpH7-A5/GpH7-B3 variant Y300_13S/GpL16-k0 (antibody, human IgG1, kappa, heterodimerized IgG1, mutation in one H chain only; also called He Ab) heavy 1: not shown heavy 2: not shown light: DIVMTQSPLSLPVTPGEPASISCQASESLVHSNRNTYLHWYLQKPGQSPQLLIYKVSNRFSGVPDRFSGSGSGTDFTLKISRVEAEDVGVYYCSQNTHVPPTFGQGTKVEIERTVAAPSVFIFPPSDEQLKSGTASVVCLLNNFYPREAKVQWKVDNALQSGNSQESVTEQDSKDSTYSLSSTLTLSKADYEKHKVYACEVTHQGLSSPVTKSFNRGEC
112 relative, control = 100 | GpH7-A5/GpH7-B3 variant Y300_19Q/GpL16-k0 (antibody, human IgG1, kappa, heterodimerized IgG1, mutation in one H chain only; also called He Ab) heavy 1: not shown heavy 2: not shown light: DIVMTQSPLSLPVTPGEPASISCQASESLVHSNRNTYLHWYLQKPGQSPQLLIYKVSNRFSGVPDRFSGSGSGTDFTLKISRVEAEDVGVYYCSQNTHVPPTFGQGTKVEIERTVAAPSVFIFPPSDEQLKSGTASVVCLLNNFYPREAKVQWKVDNALQSGNSQESVTEQDSKDSTYSLSSTLTLSKADYEKHKVYACEVTHQGLSSPVTKSFNRGEC
112 relative, control = 100 | GpH7-A5/GpH7-B3 variant Y300_20W/GpL16-k0 (antibody, human IgG1, kappa, heterodimerized IgG1, mutation in one H chain only; also called He Ab) heavy 1: not shown heavy 2: not shown light: DIVMTQSPLSLPVTPGEPASISCQASESLVHSNRNTYLHWYLQKPGQSPQLLIYKVSNRFSGVPDRFSGSGSGTDFTLKISRVEAEDVGVYYCSQNTHVPPTFGQGTKVEIERTVAAPSVFIFPPSDEQLKSGTASVVCLLNNFYPREAKVQWKVDNALQSGNSQESVTEQDSKDSTYSLSSTLTLSKADYEKHKVYACEVTHQGLSSPVTKSFNRGEC
